# Test results: US20090227507A1, “Angiotensin (1-7) Dosage Forms and Uses Thereof” (UNIVERSITY OF SOUTHERN CALIFORNIA, priority 2008, published 2009)
# Experiment: Hematology profile (CBC with differential, platelet count) in healthy men
# Format: in vivo, human
# Details: 300 μg/kg
# Procedure: Pharmacological Effect: The following evaluations (under efficacy and safety in the protocol) were performed: • Effects on the number of mature blood cells: • 1. CBC (with differential), platelet count, reticulocyte count. • Effects on early hematopoietic progenitor cells and mature lymphocyte subsets in the periphery: • 1. Flow cytometry to evaluate frequency of peripheral blood progenitor cells (eg, CD34^+) and lymphocyte subsets (eg, CD3, CD4, CD8) in peripheral blood. • 2. Collection of blood for later possible culture for progenitor cells (eg, colony forming units-granulocyte/macrophage [CFU-GM]) to evaluate potential effects on CD34^+ hematopoietic progenitor cells in peripheral blood. • 3.
# The effect of USB003 on the number of mature blood cells was assessed by the complete blood count with differential, platelet and reticulocyte counts. The effects on early hematopoietic progenitor cells and mature lymphocyte subsets in the periphery were assessed by flow cytometry. In addition, blood was collected and processed to enable culture of progenitors at a later time.
# Red blood cell (RBC) count, RBC indices, white blood cell count (WBC) with differential, reticulocyte count, platelet count, hemoglobin (Hb), hematocrit (Hct), plasma hemoglobin, peripheral flow cytometry, including CD34^+, flow cytometry for enumeration of CD3, CD4, and CD8 lymphocytes, and culture for progenitor cells in peripheral blood including colony-forming units-granulocyte/macrophage (CFU-GM).
substance,measurement,setting,value
Asp-Arg-Val-Tyr-Ile-His-Pro [USB003],"Eosinophils shift L-N, number of subjects","N = 8, baseline to Day 8",— (“—” = 0)
same,"Eosinophils shift N-H, number of subjects","N = 8, baseline to Day 8",— (“—” = 0)
same,"Eosinophils shift N-L, number of subjects","N = 8, baseline to Day 8",— (“—” = 0)
same,"Hematocrit shift H-N, number of subjects","N = 8, baseline to Day 8",— (“—” = 0)
same,"Hematocrit shift L-N, number of subjects","N = 8, baseline to Day 8",— (“—” = 0)
same,"Hematocrit shift N-H, number of subjects","N = 8, baseline to Day 8",— (“—” = 0)
same,"Hematocrit shift N-L, number of subjects","N = 8, baseline to Day 8",2
same,"Hemoglobin shift H-N, number of subjects","N = 8, baseline to Day 8",— (“—” = 0)
same,"Hemoglobin shift L-N, number of subjects","N = 8, baseline to Day 8",— (“—” = 0)
same,"Hemoglobin shift N-H, number of subjects","N = 8, baseline to Day 8",— (“—” = 0)
same,"Hemoglobin shift N-L, number of subjects","N = 8, baseline to Day 8",2
same,"Lymphocytes shift H-N, number of subjects","N = 8, baseline to Day 8",— (“—” = 0)
same,"Lymphocytes shift L-N, number of subjects","N = 8, baseline to Day 8",— (“—” = 0)
same,"Lymphocytes shift N-H, number of subjects","N = 8, baseline to Day 8",— (“—” = 0)
same,"Lymphocytes shift N-L, number of subjects","N = 8, baseline to Day 8",— (“—” = 0)
same,"Plasma Hemoglobin shift H-N, number of subjects","N = 8, baseline to Day 8",— (“—” = 0)
same,"Plasma Hemoglobin shift L-N, number of subjects","N = 8, baseline to Day 8",— (“—” = 0)
same,"Plasma Hemoglobin shift N-H, number of subjects","N = 8, baseline to Day 8",— (“—” = 0)
same,"Plasma Hemoglobin shift N-L, number of subjects","N = 8, baseline to Day 8",— (“—” = 0)
same,"Platelet Count shift H-N, number of subjects","N = 8, baseline to Day 8",— (“—” = 0)
same,"Platelet Count shift L-N, number of subjects","N = 8, baseline to Day 8",1
same,"Platelet Count shift N-H, number of subjects","N = 8, baseline to Day 8",— (“—” = 0)
same,"Platelet Count shift N-L, number of subjects","N = 8, baseline to Day 8",— (“—” = 0)
same,"RBC shift H-N, number of subjects","N = 8, baseline to Day 8",— (“—” = 0)
same,"RBC shift L-N, number of subjects","N = 8, baseline to Day 8",— (“—” = 0)
same,"RBC shift N-H, number of subjects","N = 8, baseline to Day 8",— (“—” = 0)
same,"RBC shift N-L, number of subjects","N = 8, baseline to Day 8",1
same,"Segmented Neutrophils shift H-N, number of subjects","N = 8, baseline to Day 8",— (“—” = 0)
same,"Segmented Neutrophils shift L-N, number of subjects","N = 8, baseline to Day 8",— (“—” = 0)
same,"Segmented Neutrophils shift N-H, number of subjects","N = 8, baseline to Day 8",— (“—” = 0)
same,"Segmented Neutrophils shift N-L, number of subjects","N = 8, baseline to Day 8",— (“—” = 0)
same,"Absolute Eosinophils shift H-N, number of subjects","N = 8, baseline to Day 20",— (“—” = 0)
same,"Absolute Eosinophils shift L-N, number of subjects","N = 8, baseline to Day 20",— (“—” = 0)
same,"Absolute Eosinophils shift N-H, number of subjects","N = 8, baseline to Day 20",— (“—” = 0)
same,"Absolute Eosinophils shift N-L, number of subjects","N = 8, baseline to Day 20",— (“—” = 0)
same,"Absolute Neutrophils shift H-N, number of subjects","N = 8, baseline to Day 20",— (“—” = 0)
same,"Absolute Neutrophils shift L-N, number of subjects","N = 8, baseline to Day 20",— (“—” = 0)
same,"Absolute Neutrophils shift N-H, number of subjects","N = 8, baseline to Day 20",1
same,"Absolute Neutrophils shift N-L, number of subjects","N = 8, baseline to Day 20",— (“—” = 0)
same,"Absolute Reticulocytes shift H-N, number of subjects","N = 8, baseline to Day 20",— (“—” = 0)
same,"Absolute Reticulocytes shift L-N, number of subjects","N = 8, baseline to Day 20",— (“—” = 0)
same,"Absolute Reticulocytes shift N-H, number of subjects","N = 8, baseline to Day 20",— (“—” = 0)
same,"Absolute Reticulocytes shift N-L, number of subjects","N = 8, baseline to Day 20",— (“—” = 0)
same,"Eosinophils shift H-N, number of subjects","N = 8, baseline to Day 20",1
same,"Eosinophils shift L-N, number of subjects","N = 8, baseline to Day 20",— (“—” = 0)
same,"Eosinophils shift N-H, number of subjects","N = 8, baseline to Day 20",2
same,"Eosinophils shift N-L, number of subjects","N = 8, baseline to Day 20",— (“—” = 0)
same,"Hematocrit shift H-N, number of subjects","N = 8, baseline to Day 20",— (“—” = 0)
same,"Hematocrit shift L-N, number of subjects","N = 8, baseline to Day 20",— (“—” = 0)
same,"Hematocrit shift N-H, number of subjects","N = 8, baseline to Day 20",— (“—” = 0)
same,"Hematocrit shift N-L, number of subjects","N = 8, baseline to Day 20",4
same,"Hemoglobin shift H-N, number of subjects","N = 8, baseline to Day 20",— (“—” = 0)
same,"Hemoglobin shift L-N, number of subjects","N = 8, baseline to Day 20",— (“—” = 0)
same,"Hemoglobin shift N-H, number of subjects","N = 8, baseline to Day 20",— (“—” = 0)
same,"Hemoglobin shift N-L, number of subjects","N = 8, baseline to Day 20",3
same,"Lymphocytes shift H-N, number of subjects","N = 8, baseline to Day 20",1
same,"Lymphocytes shift L-N, number of subjects","N = 8, baseline to Day 20",— (“—” = 0)
same,"Lymphocytes shift N-H, number of subjects","N = 8, baseline to Day 20",— (“—” = 0)
same,"Lymphocytes shift N-L, number of subjects","N = 8, baseline to Day 20",— (“—” = 0)
same,"Monocytes shift H-N, number of subjects","N = 8, baseline to Day 20",— (“—” = 0)
same,"Monocytes shift L-N, number of subjects","N = 8, baseline to Day 20",— (“—” = 0)
same,"Monocytes shift N-H, number of subjects","N = 8, baseline to Day 20",— (“—” = 0)
same,"Monocytes shift N-L, number of subjects","N = 8, baseline to Day 20",— (“—” = 0)
same,"Plasma Hemoglobin shift H-N, number of subjects","N = 8, baseline to Day 20",— (“—” = 0)
same,"Plasma Hemoglobin shift L-N, number of subjects","N = 8, baseline to Day 20",— (“—” = 0)
same,"Plasma Hemoglobin shift N-H, number of subjects","N = 8, baseline to Day 20",1
same,"Plasma Hemoglobin shift N-L, number of subjects","N = 8, baseline to Day 20",— (“—” = 0)
same,"Platelet Count shift H-N, number of subjects","N = 8, baseline to Day 20",— (“—” = 0)
same,"Platelet Count shift L-N, number of subjects","N = 8, baseline to Day 20",1
